1 molecule from article PMC9468336, “The choanoflagellate pore-forming lectin SaroL-1 punches holes in cancer cells by targeting the tumor-related glycosphingolipid Gb3” (Communications Biology, 2022) can be followed below.

Data set [1] can be described thus: Confocal imaging of SaroL-1 binding to FSL-Gb3 GUVs. The note with it: 200 nM fluorescent-labelled SaroL-1, FSL-Gb3 GUVs. The source says: (§1) GUVs were composed of 1,2-dioleoyl-sn-glycero-3-phosphocholine (DOPC), cholesterol (both AvantiPolar Lipids, United States), Atto 647 N 1,2-dioleoyl-sn-glycero-3-phosphoethanolamine (DOPE; Sigma-Aldrich), and one of the following glycolipids at a molar ratio of 64.7:30:0.3:5. The glycolipids are globotriaosylceramide (Gb3, Matreya), FSL-Gb3 (Function-Spacer-Lipid with globotriaosyl saccharide), and corresponding FSL-isoGb3 (Function-Spacer-Lipid with iso-globotriaosyl saccharide) synthetized as previously described[84],[85], FSL-A(tri) (Function-Spacer-Lipid with blood group A trisaccharide; Sigma-Aldrich), FSL-B(tri) (Function-Spacer-Lipid with blood group B trisaccharide; Sigma-Aldrich) or lactosylceramide (LC, Sigma-Aldrich).
(§2) GUVs were prepared by the electroformation method as earlier described. Briefly, lipids dissolved in chloroform of a total concentration of 0.5 mg/mL were spread on indium tin oxid-covered (ITO) glass slides and dried in a vacuum for at least 1 h or overnight. […]
(§3) Samples of GUVs and SaroL-1 were imaged using a confocal fluorescence microscope (Nikon Eclipse Ti-E inverted microscope equipped with Nikon A1R confocal laser scanning system, 60x oil immersion objective, NA = 1.49 and four laser lines: 405 nm, 488 nm, 561 nm, and 640 nm). […]

A short description of data set [2]: Confocal imaging of SaroL-1 binding to lactosylceramide GUVs. Particulars: 200 nM labelled SaroL-1, Lac-cer GUVs.
Source text: as §1, §2, §3

Data set [3] concerns rabbit erythrocytes. Nature of the data set: Hemolytic assay (HA). It is filed as cell-based. Here is the method: Both HA and IHA assays were performed in U-shaped 96-well microtiter plates. In both cases, a control negative experiment was performed with Buffer A added to erythrocyte solution (2% final concentration), and the resulting value was subtracted from all data.
SaroL-1 with an initial concentration of 27 μM was diluted by serial 2-fold dilution in Buffer A. Rabbit erythrocytes were purchased from Atlantis France and used without further washing. The erythrocytes were diluted to a 4% solution in 150 mM NaCl. Protein solution and rabbit erythrocytes were mixed together in a 1:1 ratio and incubated for 1 h at 37 °C. After the samples were centrifuged, 2600 × g for 15 min at RT and the absorbance of the supernatant was measured at 540 nm by a Tecan reader.

Data set [4] has as its system H1299 cells. Nature of the data set: Lactate dehydrogenase (LDH) assay. It is filed as cell-based, human. The note with it: 271 nM and 1.36 µM SaroL-1, 2 and 4 h. Here is the method: (§4) The human lung epithelial cell line H1299 (American Type Culture Collection, CRL-5803) was cultured in a complete medium, consisting of Roswell Park Memorial Institute (RPMI) medium supplemented with 10% fetal calf serum (FCS) and 2 mM L-glutamine at 37 °C and 5% CO2. Cells were stimulated with different concentrations of SaroL-1 in a complete medium for indicated time points.
This assay was used to monitor rapid changes in cell viability following the formation of pores induced by SaroL-1. Prior to running the assay, kit components were assembled according to CyQuant^TM LDH Cytotoxicity assay kit (Invitrogen—Thermo Fisher Scientific) manufacturer´s instructions. 1 × 10^4 cells per well were plated in 100 µL in triplicates in a 96-well plate with a flat bottom and allowed to adhere overnight. […] After 30 min\ of incubation at room temperature and in absence of light, 50 µL of Stop solution were added to each well and the absorbance of samples was recorded at 490 nm and 680 nm using a BioTek microplate reader. To determine LDH activity, the reference absorbance at […] (background) was subtracted from the 490 nm absorbance values before calculation of % cytotoxicity. % cytotoxicity was calculated according to the following formula = [SaroL-1-treated LDH activity − spontaneous LDH activity]/[maximum LDH activity − spontaneous LDH activity] × 100.

In data set [5] the test system is H1299 cells. In words: Cell detachment assay. The format is cell-based, human. Here is the method: as §4
To determine the role of SaroL-1 in cell detachment, 3 × 10^5 cells per well were counted and allowed to adhere overnight in a 6-well plate. The next day, cells were incubated for 2, 4, or 8 h with two different concentrations of SaroL-1 (270 nM and 1.36 µM) diluted in a complete medium compared to a negative control. As a positive control, cells were incubated with trypsin-EDTA for 10 min at 37 °C, to induce 100% cell detachment. The number of cells in suspension at the indicated time points was quantified by analyzing the supernatant with the CytoSmart Corning cell counter. Cells were resuspended with Trypan Blue solution (Sigma-Aldrich) in a ratio 1:1 for the quantification of cellular death upon detachment.

B1: SaroL-1: Recombinant pore-forming lectin of Salpingoeca rosetta (UniProt F2UID9, 329 amino acids) with β-trefoil and aerolysin-like domains (protein)
chain: MSSTFEPATDSPLPVPGVQYFLQHVQSGKYVHPHGGSDMPGNDTALVLHHGFDEKRDALRWVFVNDAENKHQLKHYSSGKFVHPKGGKVGKEATLVVHSSPGRPETMIEMVQEDGRTYLRHTDSDYYVHPHGGSPNPGDNTRLVYYSGYRPSLAFLAIPAETLFVDRIEIHQAQALESINTITSLSDEHRNDTDQPVQTSISVALEESLQDSAQLSFERCFGLKVGSEFEVGLPLVGKTKVSVQFSGSWKSSTIKGEVRTSAVKVQINEHVTIPPGKCVQIRIDTRRCTKTAPATMYLRTASGIEVQRETTVTSTYHYDQEVHVVPVTN
modifications: left off: His6, N-terminal, state not stated
notes: Recombinant pore-forming lectin of Salpingoeca rosetta (UniProt F2UID9, 329 amino acids) with β-trefoil and aerolysin-like domains
Take B1: the “binding to GUVs” value was “Strong binding” in data set [1] and “very weak binding” in data set [2]. The “Hemolysis MEAN %” value in data set [3] (SaroL-1 7 nM) is -2.217%; in data set [3] (SaroL-1 14 nM) it was -0.8961%; in data set [3] (SaroL-1 27 nM), -0.5487%; in data set [3] (SaroL-1 55 nM) it was 5.667%; in data set [3] (SaroL-1 110 nM), 24.3716%; in data set [3] (SaroL-1 217 nM) it was 59.5625%. The “Hemolysis MEAN %” value in data set [3] (SaroL-1 423 nM) was found to be 85.1119%; in data set [3] (SaroL-1 843 nM) it was 95.7679%; in data set [3] (SaroL-1 1680 nM), 93.9729%; in data set [3] (SaroL-1 3400 nM), 95.1481%; in data set [3] (SaroL-1 6790 nM), 95.7781%; in data set [3] (SaroL-1 13590 nM) it was 100%. Further, the “LDH release / membrane damage (in words)” value in data set [4] was “induced acute cytotoxicity”. Also, the “time point at which cell detachment is promoted” value in data set [5] (271 nM SaroL-1) came to 8 h. Moreover, the “cell rounding and detachment (in words)” value in data set [5] (compared to PBS-treated cells) is “dose-dependent rounding and detachment of cells”. Moreover, the “time point at which detachment of cells is visible” value in data set [5] (highest concentration, 1.36 µM SaroL-1) is recorded as 2 h.
